± gives the uncertainty stated by the source.
Assay: protein stability index of a GFP-peptide fusion (yeast GPS) (PSI 1-4); higher = more stable; sorted into four equal gates, so the index is relative within each strain
Outline: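 The protein stability index of a peptide was calculated by multiplying its read frequency in each gate by that gate's number and adding the products. The peptides were tiled 17-residue stretches of yeast proteins, fused downstream of GFP on a Cherry-expressing plasmid and carried in yeast as a pooled library. Mid-log cultures in leucine-free medium were sorted into four equal gates by GFP/Cherry ratio, and each gate's plasmids were PCR-amplified and Illumina-sequenced.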

VSNENKKNIDYQNRSTR [RRI1]
protein stability index (doa10∆): 3.13 ± 0.065
protein stability index (pdr5∆): 3.04 ± 0.067
protein stability index (san1∆): 3.2 ± 0.062
protein stability index (ubr1∆): 3.25 ± 0.055

VKAILMQRHVKVDGKVR [RPS4A]
protein stability index (doa10∆): 3.13 ± 0.15
protein stability index (pdr5∆): 3.09 ± 0.11
protein stability index (san1∆): 3.55 ± 0.2
protein stability index (ubr1∆): 2.9 ± 0.086

FKKDFEVNISSLDAREA [RPC40]
protein stability index (doa10∆): 2.07 ± 0.059
protein stability index (pdr5∆): 1.58 ± 0.067
protein stability index (san1∆): 1.98 ± 0.1
protein stability index (ubr1∆): 2.16 ± 0.092

LRLTDVTNSLSNEEKEK [GAL11]
protein stability index (doa10∆): 3.14 ± 0.12
protein stability index (pdr5∆): 3.17 ± 0.12
protein stability index (san1∆): 2.52 ± 0.15
protein stability index (ubr1∆): 3.3 ± 0.12

LAEEVVDNIVNKYQYSL [SRP68]
protein stability index (doa10∆): 3.09 ± 0.069
protein stability index (pdr5∆): 2.98 ± 0.069
protein stability index (san1∆): 2.82 ± 0.056
protein stability index (ubr1∆): 2.92 ± 0.046

KEAAAVAEGKSKQDASP [RPL8A]
protein stability index (doa10∆): 3.22 ± 0.085
protein stability index (pdr5∆): 3.29 ± 0.056
protein stability index (san1∆): 3.15 ± 0.044
protein stability index (ubr1∆): 3.04 ± 0.054

LIAIVSKLLQTTLKLSP [NUT1]
protein stability index (doa10∆): 2.19 ± 0.042
protein stability index (pdr5∆): 1.39 ± 0.063
protein stability index (san1∆): 1.31 ± 0.11
protein stability index (ubr1∆): 1.21 ± 0.066

LLRPSSKVIIKFLQVMQ [RPS22B]
protein stability index (doa10∆): 1.87 ± 0.069
protein stability index (pdr5∆): 1.61 ± 0.044
protein stability index (san1∆): 1.72 ± 0.13
protein stability index (ubr1∆): 1.82 ± 0.058

NESEKDQWLEEYKKHFP [UBP6]
protein stability index (doa10∆): 3.31 ± 0.16
protein stability index (pdr5∆): 3.6 ± 0.19
protein stability index (ubr1∆): 3.32 ± 0.11

LDAIDDFIQLKQTAAYR [SSN2]
protein stability index (ubr1∆): 3.23 ± 0.22

VNDSVISAPSMEDEILS [BRN1]
protein stability index (doa10∆): 2.05 ± 0.1
protein stability index (pdr5∆): 2.29 ± 0.089
protein stability index (san1∆): 2.41 ± 0.11
protein stability index (ubr1∆): 2.86 ± 0.073

PSTSITLAERQQLAYDL [RPN9]
protein stability index (doa10∆): 2.91 ± 0.045
protein stability index (pdr5∆): 3.09 ± 0.06
protein stability index (san1∆): 2.8 ± 0.06
protein stability index (ubr1∆): 2.94 ± 0.033

PPPPQQSQPIANQSATS [SNF5]
protein stability index (doa10∆): 2.96 ± 0.057
protein stability index (pdr5∆): 3.15 ± 0.049
protein stability index (san1∆): 2.92 ± 0.043
protein stability index (ubr1∆): 3.05 ± 0.041

IGIVEIAHENEQKWLIY [SRB8]
protein stability index (doa10∆): 1.69 ± 0.067
protein stability index (pdr5∆): 1.83 ± 0.051
protein stability index (san1∆): 1.58 ± 0.086
protein stability index (ubr1∆): 1.54 ± 0.034

VCIRPSVMMQDSPASNE [RPO31]
protein stability index (doa10∆): 1.63 ± 0.085
protein stability index (pdr5∆): 2.08 ± 0.1
protein stability index (san1∆): 1.94 ± 0.11
protein stability index (ubr1∆): 2.06 ± 0.099

KDENNTANDQYSSILGN [YCG1]
protein stability index (doa10∆): 3.02 ± 0.047
protein stability index (pdr5∆): 3.2 ± 0.046
protein stability index (san1∆): 3.01 ± 0.032
protein stability index (ubr1∆): 3.08 ± 0.034

KTPEEVEVYAKIFWERL [ISW2]
protein stability index (doa10∆): 1.74 ± 0.081
protein stability index (pdr5∆): 2.91 ± 0.17
protein stability index (san1∆): 3.03 ± 0.17
protein stability index (ubr1∆): 3.29 ± 0.085

YISLLKLQGLYENIPIY [YDL116W/NUP84]
protein stability index (doa10∆): 1.67 ± 0.06
protein stability index (pdr5∆): 1.42 ± 0.045
protein stability index (san1∆): 1.59 ± 0.12
protein stability index (ubr1∆): 1.25 ± 0.041

KCQELVTNIRRIIQDNI [RRP46]
protein stability index (doa10∆): 2.5 ± 0.15
protein stability index (pdr5∆): 2.81 ± 0.1
protein stability index (san1∆): 3.08 ± 0.25
protein stability index (ubr1∆): 1.94 ± 0.11

LLESYKTLSLKSMASAF [RPN7]
protein stability index (doa10∆): 1.67 ± 0.093
protein stability index (pdr5∆): 2.31 ± 0.11
protein stability index (san1∆): 1.89 ± 0.14
protein stability index (ubr1∆): 1.12 ± 0.033

FFLQRKLRSELGYKDTS [BRR2]
protein stability index (doa10∆): 2.11 ± 0.091
protein stability index (pdr5∆): 1.53 ± 0.071
protein stability index (san1∆): 1.71 ± 0.12
protein stability index (ubr1∆): 1.35 ± 0.18

APYRKQIISNAHNKPSL [YAR002W/NUP60]
protein stability index (doa10∆): 2.17 ± 0.073
protein stability index (pdr5∆): 2.47 ± 0.081
protein stability index (san1∆): 2 ± 0.1
protein stability index (ubr1∆): 2.36 ± 0.085

KAPLQPNSERETDHANT [IRR1]
protein stability index (doa10∆): 2.6 ± 0.083
protein stability index (pdr5∆): 2.98 ± 0.062
protein stability index (san1∆): 2.59 ± 0.068
protein stability index (ubr1∆): 2.88 ± 0.047

KERIIRAFLIEEQKIVK [RPL34A]
protein stability index (doa10∆): 3.06 ± 0.082
protein stability index (pdr5∆): 2.26 ± 0.087
protein stability index (san1∆): 2.04 ± 0.13
protein stability index (ubr1∆): 2.49 ± 0.066

RRRDFGAPANKRPRRGL [SMD1]
protein stability index (doa10∆): 2.84 ± 0.094
protein stability index (pdr5∆): 2.93 ± 0.084
protein stability index (san1∆): 3.38 ± 0.07
protein stability index (ubr1∆): 3.29 ± 0.089

FDDSDITKFALFAESHD [YML103C/NUP188]
protein stability index (doa10∆): 2.71 ± 0.3
protein stability index (san1∆): 2.92 ± 0.15

MTTSAVSPTVGKLFSDI [YIL149C/MLP2]
protein stability index (doa10∆): 3.1 ± 0.073
protein stability index (pdr5∆): 3.33 ± 0.064
protein stability index (san1∆): 3.24 ± 0.044
protein stability index (ubr1∆): 3.16 ± 0.036

QVDKVTKEKVNGASVPI [RPL26A]
protein stability index (doa10∆): 3.1 ± 0.077
protein stability index (pdr5∆): 3.3 ± 0.11
protein stability index (san1∆): 2.86 ± 0.097
protein stability index (ubr1∆): 3.08 ± 0.046

YEAPRHGHLGFLPRKRA [RPL3]
protein stability index (doa10∆): 2.99 ± 0.1
protein stability index (pdr5∆): 3.03 ± 0.071
protein stability index (san1∆): 2.88 ± 0.05
protein stability index (ubr1∆): 2.72 ± 0.09

PFQVSSFVKETKLHSGD [SRB8]
protein stability index (doa10∆): 2.96 ± 0.088
protein stability index (pdr5∆): 2.77 ± 0.082
protein stability index (san1∆): 2.8 ± 0.085
protein stability index (ubr1∆): 2.91 ± 0.061

ETATLIMNELYRMKGGR [SMC3]
protein stability index (doa10∆): 3.07 ± 0.088
protein stability index (pdr5∆): 3.21 ± 0.12
protein stability index (san1∆): 2.82 ± 0.1
protein stability index (ubr1∆): 3.26 ± 0.084

TNHVLEVFSVLGIEAAR [RPO31]
protein stability index (doa10∆): 2.21 ± 0.19
protein stability index (pdr5∆): 2.4 ± 0.11
protein stability index (san1∆): 2.77 ± 0.076
protein stability index (ubr1∆): 3.02 ± 0.24

STLTTISGNPPLLYNSL [SRB5]
protein stability index (doa10∆): 2.66 ± 0.043
protein stability index (pdr5∆): 2.46 ± 0.038
protein stability index (san1∆): 2.49 ± 0.043
protein stability index (ubr1∆): 2.56 ± 0.036

PHTVIRRKTTKQNSSSD [YDL088C/ASM4]
protein stability index (doa10∆): 3.14 ± 0.089
protein stability index (pdr5∆): 3.05 ± 0.079
protein stability index (san1∆): 3.01 ± 0.068
protein stability index (ubr1∆): 2.9 ± 0.043

NHNQFECKGCDNKIDIY [RPB2]
protein stability index (doa10∆): 3.06 ± 0.044
protein stability index (pdr5∆): 3.19 ± 0.047
protein stability index (san1∆): 3.06 ± 0.034
protein stability index (ubr1∆): 3.1 ± 0.037

DSAAIIAATGLNQINGL [GRR1]
protein stability index (doa10∆): 2.85 ± 0.096
protein stability index (pdr5∆): 2.83 ± 0.089
protein stability index (san1∆): 2.79 ± 0.083
protein stability index (ubr1∆): 2.96 ± 0.073

ISPKGGRRISENGQRDL [RPS19A]
protein stability index (pdr5∆): 2.81 ± 0.2
protein stability index (san1∆): 3.19 ± 0.13
protein stability index (ubr1∆): 2.86 ± 0.11

QDRQQLLPLVVSNISCL [ECM29]
protein stability index (doa10∆): 1.38 ± 0.046
protein stability index (pdr5∆): 1.38 ± 0.036
protein stability index (san1∆): 1.29 ± 0.074
protein stability index (ubr1∆): 1.29 ± 0.034

AMLNLINDNNTRPYILE [YCG1]
protein stability index (doa10∆): 3.22 ± 0.11
protein stability index (pdr5∆): 3.35 ± 0.15
protein stability index (san1∆): 3.08 ± 0.11
protein stability index (ubr1∆): 3.23 ± 0.19

NDVTRRTVKNILVSVLP [CSL4]
protein stability index (doa10∆): 2.89 ± 0.12
protein stability index (pdr5∆): 3.12 ± 0.1
protein stability index (san1∆): 3.11 ± 0.08
protein stability index (ubr1∆): 3.09 ± 0.11

FEGWGHEYIRHLALEIG [RPN1]
protein stability index (doa10∆): 2.18 ± 0.098
protein stability index (pdr5∆): 2.06 ± 0.071
protein stability index (san1∆): 2.41 ± 0.12
protein stability index (ubr1∆): 2.1 ± 0.083

EQFKMVSMITDHNALPQ [POP1]
protein stability index (doa10∆): 3.04 ± 0.18
protein stability index (pdr5∆): 3.05 ± 0.11
protein stability index (san1∆): 2.28 ± 0.27
protein stability index (ubr1∆): 2.85 ± 0.13

STTNSDVSLLLQRDLFI [RGR1]
protein stability index (doa10∆): 2.76 ± 0.093
protein stability index (pdr5∆): 3.06 ± 0.1
protein stability index (san1∆): 2.81 ± 0.067
protein stability index (ubr1∆): 3.02 ± 0.077

QLKNVQLDSYLVNGFSQ [MED2]
protein stability index (doa10∆): 2.49 ± 0.062
protein stability index (pdr5∆): 2.68 ± 0.088
protein stability index (san1∆): 2.24 ± 0.11
protein stability index (ubr1∆): 2.49 ± 0.042

TWENEFLDSQRVWAEYA [PRP8]
protein stability index (doa10∆): 2.14 ± 0.088
protein stability index (pdr5∆): 2.27 ± 0.072
protein stability index (san1∆): 2.13 ± 0.11
protein stability index (ubr1∆): 2.89 ± 0.11

GLGVLTHRNKDGTGVRV [FAS1]
protein stability index (doa10∆): 3.12 ± 0.066
protein stability index (pdr5∆): 2.47 ± 0.094
protein stability index (san1∆): 3.58 ± 0.082
protein stability index (ubr1∆): 3.27 ± 0.085

Reference: the supplement of paper PMC9732359
